Target: 重组AD7c-NTP蛋白 (human)
Test: indirect ELISA; plate coated with 1 μg/mL recombinant AD7c-NTP, antibody serially diluted, HRP goat anti-mouse IgG, OD450

Chain of 重组AD7c-NTP蛋白 (human) (chain, as listed by the source): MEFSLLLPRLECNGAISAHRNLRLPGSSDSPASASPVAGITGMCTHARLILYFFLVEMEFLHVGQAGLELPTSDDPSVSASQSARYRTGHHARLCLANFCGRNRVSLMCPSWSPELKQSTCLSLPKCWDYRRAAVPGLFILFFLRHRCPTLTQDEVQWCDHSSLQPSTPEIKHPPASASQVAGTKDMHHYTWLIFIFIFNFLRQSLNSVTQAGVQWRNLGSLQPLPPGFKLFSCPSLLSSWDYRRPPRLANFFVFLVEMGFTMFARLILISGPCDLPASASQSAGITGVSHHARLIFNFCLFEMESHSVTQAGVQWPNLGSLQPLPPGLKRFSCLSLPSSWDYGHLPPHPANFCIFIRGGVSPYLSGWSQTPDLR

B1: 单克隆抗体1D9 (AD7c-NTP单克隆抗体A1) (antibody, V domains shown)
VH: DVQLQESGPGLVKPSQSLSLTCTVTDYSITSDYAWNWIRQFPGNKLEWMGYISYSGSTNYNPSLKSRFSITRDTSKNQFFLQLNSVTTEDTATYYCAGSELYYGYHYVMDYWGQGTSVTVSS
VL: ENVLTQSPAIMSASLGQKVTMTCSASSSVSSSYLHWYQQRSGASPKPLIHRTSNLASGVPARFSGSGSGTSYSLTISSVEAEDDATYYCQQWSGYPLTFGAGTKLELK
**Q.** How did the 最小反应极限 turn out when B1 was run?
**A.** Its 最小反应极限 is 9.77 ng/mL.

From patent CN118184778A
